{"source": "patent US20110236427", "proteins": {"B1": {"name": "recombinant PKCzeta (enzyme, UniProt Q05513 1-592, looked up, species assumed)", "Protein kinase C zeta type": "MPSRTGPKMEGSGGRVRLKAHYGGDIFITSVDAATTFEELCEEVRDMCRLHQQHPLTLKWVDSEGDPCTVSSQMELEEAFRLARQCRDEGLIIHVFPSTPEQPGLPCPGEDKSIYRRGARRWRKLYRANGHLFQAKRFNRRAYCGQCSERIWGLARQGYRCINCKLLVHKRCHGLVPLTCRKHMDSVMPSQEPPVDDKNEDADLPSEETDGIAYISSSRKHDSIKDDSEDLKPVIDGMDGIKISQGLGLQDFDLIRVIGRGSYAKVLLVRLKKNDQIYAMKVVKKELVHDDEDIDWVQTEKHVFEQASSNPFLVGLHSCFQTTSRLFLVIEYVNGGDLMFHMQRQRKLPEEHARFYAAEICIALNFLHERGIIYRDLKLDNVLLDADGHIKLTDYGMCKEGLGPGDTTSTFCGTPNYIAPEILRGEEYGFSVDWWALGVLMFEMMAGRSPFDIITDNPDMNTEDYLFQVILEKPIRIPRFLSVKASHVLKGFLNKDPKERLGCRPQTGFSDIKSHAFFRSIDWDLLEKKQALPPFQPQITDDYGLDNFDTQFTSEPVQLTPDDEDAIKRIDQSEFEGFEYINPLLLSTEESV"}}, "tested_on": "GST-NR2F6 fusion protein, full-length, wild-type", "sequence (chain, as listed by the source)": "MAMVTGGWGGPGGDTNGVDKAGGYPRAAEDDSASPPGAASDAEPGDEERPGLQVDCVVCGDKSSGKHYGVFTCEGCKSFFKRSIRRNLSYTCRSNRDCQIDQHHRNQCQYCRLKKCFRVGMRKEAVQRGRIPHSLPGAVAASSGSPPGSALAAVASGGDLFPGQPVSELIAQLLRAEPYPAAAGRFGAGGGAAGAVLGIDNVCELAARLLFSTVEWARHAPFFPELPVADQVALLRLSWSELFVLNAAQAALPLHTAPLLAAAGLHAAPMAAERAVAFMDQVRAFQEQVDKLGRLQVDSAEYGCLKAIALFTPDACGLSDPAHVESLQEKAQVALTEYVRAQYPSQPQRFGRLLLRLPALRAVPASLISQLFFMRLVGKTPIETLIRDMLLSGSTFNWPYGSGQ"}
{"protein": "B1", "values": [{"measurement": "phosphorylation (32P incorporation), in vitro protein kinase assay", "value": "(but not PKCzeta or PKA)"}]}
